According to paper PMC9113379 (Cell & Bioscience, 2022):
Changes are numbered by the printed parent chain.

B1: REGN10933 mAb (antibody, V domains shown)
VH: QVQLVESGGGLVKPGGSLRLSCAASGFTFSDYYMSWIRQAPGKGLEWVSYITYSGSTIYYADSVKGRFTISRDNAKSSLYLQMNSLRAEDTAVYYCARDRGTTMVPFDYWGQGTLVTVSS
VL: DIQMTQSPSSLSASVGDRVTITCQASQDITNYLNWYQQKPGKAPKLLIYAASNLETGVPSRFSGSGSGTDFTFTISGLQPEDIATYYCQQYDNLPLTFGGGTKVEIK
B2: CB6 mAb (antibody, V domains shown)
VH: EVQLVESGGGLVQPGGSLRLSCAASGFTVSSNYMSWVRQAPGKGLEWVSVIYSGGSTFYADSVKGRFTISRDNSMNTLFLQMNSLRAEDTAVYYCARVLPMYGDYLDYWGQGTLVTVSS
VL: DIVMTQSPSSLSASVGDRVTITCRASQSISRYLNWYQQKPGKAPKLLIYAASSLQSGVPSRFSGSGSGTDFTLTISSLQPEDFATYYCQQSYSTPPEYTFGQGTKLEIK
B3: R3P2-A2 mAb (antibody, V domains shown)
VH: QVQLVQSGGGLIQPGGSLRLSCAASGVTVSSNYMSWVRQAPGRGLEWVSLIYPGGSTYYADSVKGRFTISRDNSRNTLYLQMNSLRAEDTAVYYCARDLSEKGGMDVWGQGTMVTVSS
VL: EIVMTQSPSVLPLFPGESGSLSCRASQNVGDFLAWYQHKPGQAPKLLIYGATNRPTGIPDRFSGTGSGTDFTLTISRMEPEDFAVYFCQQYGTSPPITFGPGTKVDIK
B4: R3P2-B5 mAb (antibody, V domains shown)
VH: B3 VH with M113L
VL: EIVMTQSPGTLSLSPGERVTLSCRTSQSVSRFFSWYQQKPGQAPRLLIHTASTRATDIPDRFSASGSGTDFTLTISRLEPEDSAMYYCQHYGASPYTFGQGTKVDIK
B5: R3P1-E4 mAb (antibody, V domains shown)
VH: B3 VH with M113T
VL: DIVMTQSPSSLSASVGDRVTITCRASQGISSYLAWYQQKPGKAPKLLIYAASTLQSGVPSRFSGSGSGTDFTLTISSLQPEDFATYYCQQLNSYPRFGPGTKVEIK
B6: R3P2-G1 mAb (antibody, V domains shown)
VH: B3 VH with M113T
VL: QAVLTQPPSVSVAPGKTARITCGGNHIGSKSVNWYQQKSGQAPVLVIYSDSDRPSGIPARFSGSNSGDTATLTISRVEAGDEADYYCQVWDNRSDHWVFGGGTQLTVL

Key:
[1] = molecular target: T1, SARS-CoV-2 S protein RBD domain (wild type) (SARS-CoV-2, UniProt P0DTC2); assay: ELISA; conditions: both partners purified
[2] = molecular target: T1, SARS-CoV-2 S protein RBD domain (wild …); assay: SPR; conditions: both partners purified

Binder | binding result [1] | Kd [2] [nM]
B1 | binds | 
B2 | binds | 
B3 |  | 2.32
B4 | binds | 
B5 |  | 0.82
B6 | binds | 
